Residue numbers refer to the chain shown, from its start. Bridges are numbered along the chain shown (N, C = ends). Where no end group is shown, it is not given here. [ ]: non-standard residue; d: D form. The star is where a group is joined. Acetyl(2-(4-imidazolyl)) = O=C(Cc1c[nH]cn1)*; Aib = CC(C)(N)C(=O)O
B1: triple agonist of SEQ ID NO: 25 (peptide)
peptide: HXQGTFTSDCSKYLDERAAQDFVQWLLDGGPSSGAPPPS
HELM: PEPTIDE1{H.[Aib].Q.G.T.F.T.S.D.C.S.K.Y.L.D.E.R.A.A.Q.D.F.V.Q.W.L.L.D.G.G.P.S.S.G.A.P.P.P.S.[am]}$$$$V2.0; N-terminus assumed
SMILES: CC(C)C[C@H](NC(=O)[C@H](CC(C)C)NC(=O)[C@H](Cc1c[nH]c2ccccc12)NC(=O)[C@H](CCC(N)=O)NC(=O)[C@@H](NC(=O)[C@H](Cc1ccccc1)NC(=O)[C@H](CC(=O)O)NC(=O)[C@H](CCC(N)=O)NC(=O)[C@H](C)NC(=O)[C@H](C)NC(=O)[C@H](CCCNC(=N)N)NC(=O)[C@H](CCC(=O)O)NC(=O)[C@H](CC(=O)O)NC(=O)[C@H](CC(C)C)NC(=O)[C@H](Cc1ccc(O)cc1)NC(=O)[C@H](CCCCN)NC(=O)[C@H](CO)NC(=O)[C@H](CS)NC(=O)[C@H](CC(=O)O)NC(=O)[C@H](CO)NC(=O)[C@@H](NC(=O)[C@H](Cc1ccccc1)NC(=O)[C@@H](NC(=O)CNC(=O)[C@H](CCC(N)=O)NC(=O)C(C)(C)NC(=O)[C@@H](N)Cc1c[nH]cn1)[C@@H](C)O)[C@@H](C)O)C(C)C)C(=O)N[C@@H](CC(=O)O)C(=O)NCC(=O)NCC(=O)N1CCC[C@H]1C(=O)N[C@@H](CO)C(=O)N[C@@H](CO)C(=O)NCC(=O)N[C@@H](C)C(=O)N1CCC[C@H]1C(=O)N1CCC[C@H]1C(=O)N1CCC[C@H]1C(=O)N[C@@H](CO)C(N)=O
B2: triple agonist of SEQ ID NO: 26 (peptide)
peptide: B1 peptide with E16S
HELM: PEPTIDE1{H.[Aib].Q.G.T.F.T.S.D.C.S.K.Y.L.D.S.R.A.A.Q.D.F.V.Q.W.L.L.D.G.G.P.S.S.G.A.P.P.P.S.[am]}$$$$V2.0; N-terminus assumed
SMILES: CC(C)C[C@H](NC(=O)[C@H](CC(C)C)NC(=O)[C@H](Cc1c[nH]c2ccccc12)NC(=O)[C@H](CCC(N)=O)NC(=O)[C@@H](NC(=O)[C@H](Cc1ccccc1)NC(=O)[C@H](CC(=O)O)NC(=O)[C@H](CCC(N)=O)NC(=O)[C@H](C)NC(=O)[C@H](C)NC(=O)[C@H](CCCNC(=N)N)NC(=O)[C@H](CO)NC(=O)[C@H](CC(=O)O)NC(=O)[C@H](CC(C)C)NC(=O)[C@H](Cc1ccc(O)cc1)NC(=O)[C@H](CCCCN)NC(=O)[C@H](CO)NC(=O)[C@H](CS)NC(=O)[C@H](CC(=O)O)NC(=O)[C@H](CO)NC(=O)[C@@H](NC(=O)[C@H](Cc1ccccc1)NC(=O)[C@@H](NC(=O)CNC(=O)[C@H](CCC(N)=O)NC(=O)C(C)(C)NC(=O)[C@@H](N)Cc1c[nH]cn1)[C@@H](C)O)[C@@H](C)O)C(C)C)C(=O)N[C@@H](CC(=O)O)C(=O)NCC(=O)NCC(=O)N1CCC[C@H]1C(=O)N[C@@H](CO)C(=O)N[C@@H](CO)C(=O)NCC(=O)N[C@@H](C)C(=O)N1CCC[C@H]1C(=O)N1CCC[C@H]1C(=O)N1CCC[C@H]1C(=O)N[C@@H](CO)C(N)=O
B3: triple agonist of SEQ ID NO: 2 (peptide)
peptide: HXQGTFTSDVSSYLDGQAQKEFIAWLVKGC
HELM: PEPTIDE1{H.[Aib].Q.G.T.F.T.S.D.V.S.S.Y.L.D.G.Q.A.Q.K.E.F.I.A.W.L.V.K.G.C.[am]}$$$$V2.0; N-terminus assumed
SMILES: CC[C@H](C)[C@H](NC(=O)[C@H](Cc1ccccc1)NC(=O)[C@H](CCC(=O)O)NC(=O)[C@H](CCCCN)NC(=O)[C@H](CCC(N)=O)NC(=O)[C@H](C)NC(=O)[C@H](CCC(N)=O)NC(=O)CNC(=O)[C@H](CC(=O)O)NC(=O)[C@H](CC(C)C)NC(=O)[C@H](Cc1ccc(O)cc1)NC(=O)[C@H](CO)NC(=O)[C@H](CO)NC(=O)[C@@H](NC(=O)[C@H](CC(=O)O)NC(=O)[C@H](CO)NC(=O)[C@@H](NC(=O)[C@H](Cc1ccccc1)NC(=O)[C@@H](NC(=O)CNC(=O)[C@H](CCC(N)=O)NC(=O)C(C)(C)NC(=O)[C@@H](N)Cc1c[nH]cn1)[C@@H](C)O)[C@@H](C)O)C(C)C)C(=O)N[C@@H](C)C(=O)N[C@@H](Cc1c[nH]c2ccccc12)C(=O)N[C@@H](CC(C)C)C(=O)N[C@H](C(=O)N[C@@H](CCCCN)C(=O)NCC(=O)N[C@@H](CS)C(N)=O)C(C)C

Biological target: human GLP-1 receptor (human, UniProt P43220 24-463)
Assay: cell-based or functional assay

Binder	in vitro Activity Compared to Native Peptide (%), vs GLP-1 [%]
[Acetyl(2-(4-imidazolyl))]GQGTFTSDLSKQMDSERAREFIEWLKNTGPSSGAPPPSHG-NH2 [triple agonist of SEQ ID NO: 18]	< 0.1
[Acetyl(2-(4-imidazolyl))]GQGTFTSDLSIQYDSEHQRDFIEWLKDTGPSSGAPPPSHG-NH2 [triple agonist of SEQ ID NO: 19]	< 0.1
B1	82.6
B2	64.5
Y[Aib]QGTFTSDYSKYLDECRAKEFVQWLLAQKGKKNDWKHNIT (bridge 16-20; not fully specified (C-terminus)) [triple agonist of SEQ ID NO: 23]	4.01
[Acetyl(2-(4-imidazolyl))]GQGTFTSDLSIQYEEEAQQDFVEWLKDTGPSSGAPPPSHG-NH2 [triple agonist of SEQ ID NO: 20]	< 0.1
Y[Aib]QGTFTSDYSKCLDEKRAKEFVQWLLDHHPSSGQPPPS-NH2 (bridge 16-20) [triple agonist of SEQ ID NO: 22]	20.1
[Acetyl(2-(4-imidazolyl))]GQGTFTSDLSKQMDEERAREFIEWLLAQKPSSGAPPPSHG-NH2 [triple agonist of SEQ ID NO: 17]	0.2
Y[Aib]QGTFTSDYSKYLDECRAKEFVQWLLDHHPSSGQPPPS-NH2 (bridge 16-20; also: ring type not given here) [triple agonist of SEQ ID NO: 21]	17.8
B3	5.9
[Acetyl(2-(4-imidazolyl))]GQGTFTSDYSIQLDEIAVRDFVEWLKNGGPSSGAPPPSHG-NH2 [triple agonist of SEQ ID NO: 14]	28
Y[Aib]QGTFTSDYSKYLDECRAKEFVQWLKNGGPSSGAPPPS (bridge 16-20; not fully specified (C-terminus)) [triple agonist of SEQ ID NO: 24]	41.2
[Acetyl(2-(4-imidazolyl))]GQGTFTSDLSKQMDSEAQQLFIEWLKNGGPSSGAPPPSHG-NH2 [triple agonist of SEQ ID NO: 16]	2.1
H[Aib]QGTFTSDVSSYLLGQAAKQFIAWLVKGGGPSSGAPPPSC-NH2 [triple agonist of SEQ ID NO: 3]	1.8

Biological target: T1, human GIP receptor (human, UniProt P48546 22-466)
T1 sequence (looked up): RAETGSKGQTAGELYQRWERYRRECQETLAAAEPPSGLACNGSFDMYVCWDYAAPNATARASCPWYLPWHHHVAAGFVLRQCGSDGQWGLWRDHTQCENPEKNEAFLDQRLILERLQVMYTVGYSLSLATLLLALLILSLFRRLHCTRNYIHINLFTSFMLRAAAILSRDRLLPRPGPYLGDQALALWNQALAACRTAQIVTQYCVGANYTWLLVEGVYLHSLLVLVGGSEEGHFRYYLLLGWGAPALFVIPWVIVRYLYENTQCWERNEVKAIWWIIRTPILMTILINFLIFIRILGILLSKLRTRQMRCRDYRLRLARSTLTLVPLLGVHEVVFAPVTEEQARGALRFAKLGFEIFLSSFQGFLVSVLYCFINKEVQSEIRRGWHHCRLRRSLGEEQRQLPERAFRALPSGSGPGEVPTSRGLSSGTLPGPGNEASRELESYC
Assay: cell-based or functional assay

Binder	in vitro Activity Compared to Native Peptide (%), vs GIP [%]
[Acetyl(2-(4-imidazolyl))]GQGTFTSDLSKQMDSERAREFIEWLKNTGPSSGAPPPSHG-NH2 [triple agonist of SEQ ID NO: 18]	< 0.1
[Acetyl(2-(4-imidazolyl))]GQGTFTSDLSIQYDSEHQRDFIEWLKDTGPSSGAPPPSHG-NH2 [triple agonist of SEQ ID NO: 19]	< 0.1
B1	< 0.1
B2	< 0.1
Y[Aib]QGTFTSDYSKYLDECRAKEFVQWLLAQKGKKNDWKHNIT (bridge 16-20; not fully specified (C-terminus)) [triple agonist of SEQ ID NO: 23]	< 0.1
[Acetyl(2-(4-imidazolyl))]GQGTFTSDLSIQYEEEAQQDFVEWLKDTGPSSGAPPPSHG-NH2 [triple agonist of SEQ ID NO: 20]	< 0.1
Y[Aib]QGTFTSDYSKCLDEKRAKEFVQWLLDHHPSSGQPPPS-NH2 (bridge 16-20) [triple agonist of SEQ ID NO: 22]	59.7
[Acetyl(2-(4-imidazolyl))]GQGTFTSDLSKQMDEERAREFIEWLLAQKPSSGAPPPSHG-NH2 [triple agonist of SEQ ID NO: 17]	< 0.1
Y[Aib]QGTFTSDYSKYLDECRAKEFVQWLLDHHPSSGQPPPS-NH2 (bridge 16-20; also: ring type not given here) [triple agonist of SEQ ID NO: 21]	22.7
B3	< 0.1
[Acetyl(2-(4-imidazolyl))]GQGTFTSDYSIQLDEIAVRDFVEWLKNGGPSSGAPPPSHG-NH2 [triple agonist of SEQ ID NO: 14]	< 0.1
Y[Aib]QGTFTSDYSKYLDECRAKEFVQWLKNGGPSSGAPPPS (bridge 16-20; not fully specified (C-terminus)) [triple agonist of SEQ ID NO: 24]	< 0.1
[Acetyl(2-(4-imidazolyl))]GQGTFTSDLSKQMDSEAQQLFIEWLKNGGPSSGAPPPSHG-NH2 [triple agonist of SEQ ID NO: 16]	< 0.1
H[Aib]QGTFTSDVSSYLLGQAAKQFIAWLVKGGGPSSGAPPPSC-NH2 [triple agonist of SEQ ID NO: 3]	< 0.1

Biological target: human GCG receptor (human, UniProt P47871 26-477)
Assay: cell-based or functional assay

Sequence of human GCG receptor (P47871 26-477): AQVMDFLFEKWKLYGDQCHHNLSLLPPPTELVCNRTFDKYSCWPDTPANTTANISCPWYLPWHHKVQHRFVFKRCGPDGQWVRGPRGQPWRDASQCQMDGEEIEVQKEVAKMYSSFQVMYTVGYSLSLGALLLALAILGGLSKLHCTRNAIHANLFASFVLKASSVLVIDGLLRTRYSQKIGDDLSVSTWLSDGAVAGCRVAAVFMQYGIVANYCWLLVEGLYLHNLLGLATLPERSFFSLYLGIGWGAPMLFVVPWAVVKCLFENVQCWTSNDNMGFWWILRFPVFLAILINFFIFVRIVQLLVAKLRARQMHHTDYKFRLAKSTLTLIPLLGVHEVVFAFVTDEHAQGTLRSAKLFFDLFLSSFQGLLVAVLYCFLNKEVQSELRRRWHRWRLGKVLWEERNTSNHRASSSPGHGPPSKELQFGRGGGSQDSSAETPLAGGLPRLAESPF

Binder	in vitro Activity Compared to Native Peptide (%), vs Glucagon [%]
[Acetyl(2-(4-imidazolyl))]GQGTFTSDLSKQMDSERAREFIEWLKNTGPSSGAPPPSHG-NH2 [triple agonist of SEQ ID NO: 18]	< 0.1
[Acetyl(2-(4-imidazolyl))]GQGTFTSDLSIQYDSEHQRDFIEWLKDTGPSSGAPPPSHG-NH2 [triple agonist of SEQ ID NO: 19]	< 0.1
B1	0.1
B2	0.2
Y[Aib]QGTFTSDYSKYLDECRAKEFVQWLLAQKGKKNDWKHNIT (bridge 16-20; not fully specified (C-terminus)) [triple agonist of SEQ ID NO: 23]	9.3
[Acetyl(2-(4-imidazolyl))]GQGTFTSDLSIQYEEEAQQDFVEWLKDTGPSSGAPPPSHG-NH2 [triple agonist of SEQ ID NO: 20]	< 0.1
Y[Aib]QGTFTSDYSKCLDEKRAKEFVQWLLDHHPSSGQPPPS-NH2 (bridge 16-20) [triple agonist of SEQ ID NO: 22]	140
[Acetyl(2-(4-imidazolyl))]GQGTFTSDLSKQMDEERAREFIEWLLAQKPSSGAPPPSHG-NH2 [triple agonist of SEQ ID NO: 17]	< 0.1
Y[Aib]QGTFTSDYSKYLDECRAKEFVQWLLDHHPSSGQPPPS-NH2 (bridge 16-20; also: ring type not given here) [triple agonist of SEQ ID NO: 21]	267
B3	< 0.1
[Acetyl(2-(4-imidazolyl))]GQGTFTSDYSIQLDEIAVRDFVEWLKNGGPSSGAPPPSHG-NH2 [triple agonist of SEQ ID NO: 14]	< 0.1
Y[Aib]QGTFTSDYSKYLDECRAKEFVQWLKNGGPSSGAPPPS (bridge 16-20; not fully specified (C-terminus)) [triple agonist of SEQ ID NO: 24]	9.3
[Acetyl(2-(4-imidazolyl))]GQGTFTSDLSKQMDSEAQQLFIEWLKNGGPSSGAPPPSHG-NH2 [triple agonist of SEQ ID NO: 16]	< 0.1
H[Aib]QGTFTSDVSSYLLGQAAKQFIAWLVKGGGPSSGAPPPSC-NH2 [triple agonist of SEQ ID NO: 3]	< 0.1

Source: patent US20250114463A1, “LIVER-TARGETED DRUG AND USE THEREOF” (HANMI PHARM. CO., LTD., priority 2021, published 2025)
